The target of test [1] is T1, Human CLEC12A-His (recombinant, K244 WT) (human, UniProt Q5QGZ9 65-265).
T1 construct: Made in house (Dragonfly Tx); also called hCLEC12A; hCLEC12A-His; not shown: His tag
T1 sequence: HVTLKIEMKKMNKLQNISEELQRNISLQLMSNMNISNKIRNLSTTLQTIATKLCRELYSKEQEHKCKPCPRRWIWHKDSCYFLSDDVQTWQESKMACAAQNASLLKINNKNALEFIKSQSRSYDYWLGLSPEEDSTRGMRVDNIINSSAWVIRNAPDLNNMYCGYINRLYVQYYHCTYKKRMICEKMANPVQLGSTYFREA
Nature of the test: SPR, two-state fit; after 4 wks 40C in HST pH 6.0. (In SPR one partner is held on a chip, and binding of the other changes the refractive index at the surface.)

Test [2] addresses BC089418 (HuProt array JHU16002.P168E09) (human). The test can be described thus: HuProt human proteome microarray, AB0089 at 1 µg/ml.
Test [3] concerns the target T1, Human CLEC12A-His (recombinant, K244 WT). The description is as above.
Test [4] deals with T2, ECDHDC1 (HuProt array JHU25034.P240F11) (human).
T2 construct: Name as printed; may be a misprint of a gene name
T2 sequence (Q9NTX5 whole entry): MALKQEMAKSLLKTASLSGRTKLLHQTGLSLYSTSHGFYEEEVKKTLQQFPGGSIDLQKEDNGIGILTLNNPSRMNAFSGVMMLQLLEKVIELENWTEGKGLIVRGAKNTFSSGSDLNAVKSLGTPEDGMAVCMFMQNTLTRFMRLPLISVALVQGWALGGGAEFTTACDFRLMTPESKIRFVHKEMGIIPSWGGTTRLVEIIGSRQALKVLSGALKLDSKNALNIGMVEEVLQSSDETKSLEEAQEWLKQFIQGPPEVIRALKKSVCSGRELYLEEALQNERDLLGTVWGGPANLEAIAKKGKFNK
The test is described as above.

Test [5] deals with T3, Human CLEC12A expressed on cells (Ba/F3-hCLEC12A, PL21, HL60) (human, UniProt Q5QGZ9 1-265).
T3 sequence: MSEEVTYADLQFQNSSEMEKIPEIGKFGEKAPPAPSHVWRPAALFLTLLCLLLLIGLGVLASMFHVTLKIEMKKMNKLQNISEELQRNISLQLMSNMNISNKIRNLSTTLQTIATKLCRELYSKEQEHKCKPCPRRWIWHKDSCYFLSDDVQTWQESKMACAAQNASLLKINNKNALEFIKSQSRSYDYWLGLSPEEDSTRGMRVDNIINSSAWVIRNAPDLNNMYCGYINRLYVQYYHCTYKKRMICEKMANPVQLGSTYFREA
Nature of the test: cell-based or functional assay.

Test [6] has as its target T4, mFc-hNKG2D (recombinant mFc-tagged human NKG2D dimer) (human, UniProt P26718 73-216).
T4 construct: extracellular domain; Made in house; not shown: mouse Fc tag
T4 sequence (looked up): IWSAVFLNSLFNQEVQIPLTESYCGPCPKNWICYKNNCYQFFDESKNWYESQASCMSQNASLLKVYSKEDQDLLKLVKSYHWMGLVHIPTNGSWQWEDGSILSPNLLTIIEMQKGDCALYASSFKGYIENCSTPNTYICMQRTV
Nature of the test: SPR; after 4 wks 40C in CST pH 7.0.

Test [7] concerns the target T5, Human CD16a V158 (FcγRIIIa V158) (human, UniProt P08637 17-208, biotinylated).
T5 construct: Bought recombinant receptor; also called hCD16aV; hFcγRIIIa V158
The test can be described thus: SPR; after 4 wks 40C in CST pH 7.0.

A further test addresses T6, mFc-hNKG2D (human, UniProt P26718 73-216).
T6 construct: extracellular domain; Recombinant mFc-tagged NKG2D dimer, made in house; also called human NKG2D; not shown: mouse Fc tag
T6 sequence (looked up): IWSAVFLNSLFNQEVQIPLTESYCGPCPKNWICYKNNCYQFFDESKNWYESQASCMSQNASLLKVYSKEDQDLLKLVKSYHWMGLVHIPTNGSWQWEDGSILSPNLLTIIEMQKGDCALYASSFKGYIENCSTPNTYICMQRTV
The test can be described thus: SPR; sample after low pH hold.

The target of another test is T7, Human CD16a V158 (human, UniProt P08637 17-208, biotinylated).
T7 construct: Bought recombinant receptor; also called hCD16a (V158); hFcγRIIIa V158
T7 sequence (P08637 17-208 F176V limits assumed): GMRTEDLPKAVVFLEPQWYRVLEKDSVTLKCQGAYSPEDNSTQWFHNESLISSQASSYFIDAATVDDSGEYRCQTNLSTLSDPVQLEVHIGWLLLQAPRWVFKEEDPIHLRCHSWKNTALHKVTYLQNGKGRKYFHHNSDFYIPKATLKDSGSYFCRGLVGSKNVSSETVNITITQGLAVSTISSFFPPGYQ
The test can be described thus: SPR; sample after low pH hold.

In a further test the target is T8, Human CLEC12A-His (human, UniProt Q5QGZ9 65-265).
T8 construct: Recombinant soluble protein made in house; also called hCLEC12A-His; hCLEC12A; not shown: His tag
T8 sequence: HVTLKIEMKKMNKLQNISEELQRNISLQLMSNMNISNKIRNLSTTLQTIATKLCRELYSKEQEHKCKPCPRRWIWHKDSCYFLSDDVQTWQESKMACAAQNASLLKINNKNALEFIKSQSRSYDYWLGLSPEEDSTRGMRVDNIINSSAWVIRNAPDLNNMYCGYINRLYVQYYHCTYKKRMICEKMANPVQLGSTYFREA
The test can be described thus: SPR; sample after low pH hold.

In test [8] the target is T9, recombinant cynomolgus CD16 (cynomolgus monkey, UniProt Q8SPW2 17-208, biotinylated).
T9 construct: also called cFcγRIII; cyno CD16
T9 sequence (Q8SPW2 17-208 limits assumed): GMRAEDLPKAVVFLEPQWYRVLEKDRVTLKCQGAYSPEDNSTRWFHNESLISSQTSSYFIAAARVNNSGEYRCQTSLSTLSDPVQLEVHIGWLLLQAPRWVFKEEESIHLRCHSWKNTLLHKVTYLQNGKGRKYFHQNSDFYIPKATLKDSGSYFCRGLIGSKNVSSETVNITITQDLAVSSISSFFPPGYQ
The test can be described thus: SPR 25C, steady state.

The target of test [9] is T10, recombinant cynomolgus FcRn (cynomolgus monkey, UniProt Q8SPV9 24-297; Q8SPW0 21-119).
T10 construct: also called cFcRn; cyno FcRn
T10 sequence (Q8SPV9 24-297 limits assumed, chain 1 of 2): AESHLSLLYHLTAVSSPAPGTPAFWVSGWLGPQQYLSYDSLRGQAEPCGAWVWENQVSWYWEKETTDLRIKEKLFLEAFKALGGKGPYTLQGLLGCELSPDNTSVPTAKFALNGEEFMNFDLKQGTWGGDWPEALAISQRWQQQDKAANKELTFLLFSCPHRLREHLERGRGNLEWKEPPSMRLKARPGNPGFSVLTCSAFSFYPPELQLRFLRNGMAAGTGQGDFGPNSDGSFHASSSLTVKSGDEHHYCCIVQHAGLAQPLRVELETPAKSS
T10 sequence (Q8SPW0 21-119 limits assumed, chain 2 of 2): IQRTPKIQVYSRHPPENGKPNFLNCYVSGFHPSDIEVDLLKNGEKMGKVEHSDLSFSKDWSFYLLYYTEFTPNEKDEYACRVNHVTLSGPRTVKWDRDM
The test can be described thus: SPR 25C, pH 6.0, steady state; pH 6.0; first replicate.

Several values for one entry are separate records, joined by “and”; a condition that tells them apart may be missing. Equal entries are not always repeated.

T5 sequence (P08637 17-208 F176V limits assumed): as the sequence (P08637 17-208 F176V limits assumed) above

B1: AB0089 TriNKET (bispecific antibody, human IgG1, kappa)
chain: QLQLQESGPGLVKPSETLSLTCTVSGFSLTNYGLHWIRQPPGKCLEWIGVIWVGGATDYNPSLKSRVTISVDTSKNQFSLKLSSVQAADTAVYYCAKGDYGDTLDYWGQGTLVTVSSGGGGSGGGGSGGGGSGGGGSDIQMTQSPSSLSASVGDRVTITCHASQNINFWLSWYQQKPGKAPKLLIYEASNLHTGVPSRFSGSGSGTDFTLTISSLQPEDFATYYCQQSHSYPLTFGCGTKLEIKGSDKTHTCPPCPAPELLGGPSVFLFPPKPKDTLMISRTPEVTCVVVDVSHEDPEVKFNWYVDGVEVHNAKTKPREEQYNSTYRVVSVLTVLHQDWLNGKEYKCKVSNKALPAPIEKTISKAKGQPREPRVYTLPPCRDELTKNQVSLTCLVKGFYPSDIAVEWESNGQPENNYKTTPPVLVSDGSFTLYSKLTVDKSRWQQGNVFSCSVMHEALHNHYTQKSLSLSPG
heavy: EVQLVESGGGLVKPGGSLRLSCAASGFTFSSYSMNWVRQAPGKGLEWVSSISSSSSYIYYADSVKGRFTISRDNAKNSLYLQMNSLRAEDTAVYYCARGAPIGAAAGWFDPWGQGTLVTVSSASTKGPSVFPLAPSSKSTSGGTAALGCLVKDYFPEPVTVSWNSGALTSGVHTFPAVLQSSGLYSLSSVVTVPSSSLGTQTYICNVNHKPSNTKVDKKVEPKSCDKTHTCPPCPAPELLGGPSVFLFPPKPKDTLMISRTPEVTCVVVDVSHEDPEVKFNWYVDGVEVHNAKTKPREEQYNSTYRVVSVLTVLHQDWLNGKEYKCKVSNKALPAPIEKTISKAKGQPREPQVCTLPPSRDELTENQVSLTCLVKGFYPSDIAVEWESNGQPENNYKTTPPVLDSDGSFFLYSWLTVDKSRWQQGNVFSCSVMHEALHNHYTQKSLSLSPG
light: DIQMTQSPSSVSASVGDRVTITCRASQGISSWLAWYQQKPGKAPKLLIYAASSLQSGVPSRFSGSGSGTDFTLTISSLQPEDFATYYCQQGVSFPRTFGGGTKVEIKRTVAAPSVFIFPPSDEQLKSGTASVVCLLNNFYPREAKVQWKVDNALQSGNSQESVTEQDSKDSTYSLSSTLTLSKADYEKHKVYACEVTHQGLSSPVTKSFNRGEC
notes: F3' format heterodimer of three chains; human IgG1 Fc with EW-RVT and Y349C/S354C mutations; also called AB0089 Lot AB0089-002; CLEC12A TriNKET AB0089
As a reminder, the Kd is the equilibrium constant for the complex coming apart. For orientation: koff means the rate constant with which the complex falls apart. What is called kon is a measure of how fast the partners come together. In the case of B1, the Kd in test [1] is 1 nM; in test [6] it was 791 nM; in test [7], 342 nM. The Z score in [2] amounted to 3.7; in [3], 151; in test [4], 3.75. For the same molecule, the “EC50, KHYG1-CD16aV cytotoxicity assay; after 4 wks 40C in CST pH 7.0” value in test [5] came to 0.16 nM. The “EC50, KHYG1-CD16aV cytotoxicity assay; control sample” value in test [5] came to 0.13 nM. In addition, the results for the koff in [6] and in test [7] were 0.126 s⁻¹ and 0.0284 s⁻¹, respectively. Besides, the values for the kon in test [6] and in test [7] were 160000 M⁻¹ s⁻¹ and 83100 M⁻¹ s⁻¹, respectively.

B2: AB0192 TriNKET (other)
chain: EVQLVESGGGVVQPGGSLRLSCAASGFTFNAFGMHWVRQAPGKCLEWVAFISSGSTSIYYANTVKGRFTISRDNSKNTLYLQMNSLRAEDTAVYYCARDGYPTGGAMDYWGQGTSVTVSSGGGGSGGGGSGGGGSGGGGSDIQMTQSPSSLSASVGDRVTITCKASQDIYNYLSWFQQKPGKAPKPLIYRANILVSGVPSRFSGSGSGQDYTFTISSLQPEDIATYYCLQFDAFPFTFGCGTKLEIKGSDKTHTCPPCPAPELLGGPSVFLFPPKPKDTLMISRTPEVTCVVVDVSHEDPEVKFNWYVDGVEVHNAKTKPREEQYNSTYRVVSVLTVLHQDWLNGKEYKCKVSNKALPAPIEKTISKAKGQPREPRVYTLPPCRDELTKNQVSLTCLVKGFYPSDIAVEWESNGQPENNYKTTPPVLVSDGSFTLYSKLTVDKSRWQQGNVFSCSVMHEALHNHYTQKSLSLSPG
heavy: EVQLVESGGGLVKPGGSLRLSCAASGFTFSSYSMNWVRQAPGKGLEWVSSISSSSSYIYYADSVKGRFTISRDNAKNSLYLQMNSLRAEDTAVYYCARGAPIGAAAGWFDPWGQGTLVTVSSASTKGPSVFPLAPSSKSTSGGTAALGCLVKDYFPEPVTVSWNSGALTSGVHTFPAVLQSSGLYSLSSVVTVPSSSLGTQTYICNVNHKPSNTKVDKKVEPKSCDKTHTCPPCPAPELLGGPSVFLFPPKPKDTLMISRTPEVTCVVVDVSHEDPEVKFNWYVDGVEVHNAKTKPREEQYNSTYRVVSVLTVLHQDWLNGKEYKCKVSNKALPAPIEKTISKAKGQPREPQVCTLPPSRDELTENQVSLTCLVKGFYPSDIAVEWESNGQPENNYKTTPPVLDSDGSFFLYSWLTVDKSRWQQGNVFSCSVMHEALHNHYTQKSLSLSPG
light: DIQMTQSPSSVSASVGDRVTITCRASQGISSWLAWYQQKPGKAPKLLIYAASSLQSGVPSRFSGSGSGTDFTLTISSLQPEDFATYYCQQGVSFPRTFGGGTKVEIKRTVAAPSVFIFPPSDEQLKSGTASVVCLLNNFYPREAKVQWKVDNALQSGNSQESVTEQDSKDSTYSLSSTLTLSKADYEKHKVYACEVTHQGLSSPVTKSFNRGEC
notes: the condition stands under assay; also called AB0192 Lot AB0192-005
In the test with mFc-hNKG2D, B2 returned a Kd of 796 nM, a koff of 0.142 s⁻¹ and an association rate constant (kon) of 178000 M⁻¹ s⁻¹. Besides, in the test with Human CD16a V158, the Kd was 180 nM, the koff was found to be 0.0212 s⁻¹ and the kon was 118000 M⁻¹ s⁻¹. Further, in the test with Human CLEC12A-His, binding was characterised by a dissociation constant (Kd) of 1.66 nM, the off-rate (koff) stood at 0.00115 s⁻¹ and the association rate constant (kon) is 690000 M⁻¹ s⁻¹.

B3: F3'-1602 TriNKET (other)
chain: QLQLQESGPGLVKPSETLSLTCTVSGFSLTNYGLHWIRQPPGKCLEWIGVIWSGGKTDYNPSLKSRVTISKDTSKNQFSLKLSSVQAADTAVYYCAKYDYDDSLDYWGQGTLVTVSSGGGGSGGGGSGGGGSGGGGSDIQMTQSPSSLSASVGDRVTITCHASQNINFWLSWYQQKPGKAPKLLIYEASNLHTGVPSRFSGSGSGTRFTLTISSLQPEDIATYYCQQSHSYPLTFGCGTKLEIKGSDKTHTCPPCPAPELLGGPSVFLFPPKPKDTLMISRTPEVTCVVVDVSHEDPEVKFNWYVDGVEVHNAKTKPREEQYNSTYRVVSVLTVLHQDWLNGKEYKCKVSNKALPAPIEKTISKAKGQPREPRVYTLPPCRDELTKNQVSLTCLVKGFYPSDIAVEWESNGQPENNYKTTPPVLVSDGSFTLYSKLTVDKSRWQQGNVFSCSVMHEALHNHYTQKSLSLSPG
heavy: EVQLVESGGGLVKPGGSLRLSCAASGFTFSSYSMNWVRQAPGKGLEWVSSISSSSSYIYYADSVKGRFTISRDNAKNSLYLQMNSLRAEDTAVYYCARGAPIGAAAGWFDPWGQGTLVTVSSASTKGPSVFPLAPSSKSTSGGTAALGCLVKDYFPEPVTVSWNSGALTSGVHTFPAVLQSSGLYSLSSVVTVPSSSLGTQTYICNVNHKPSNTKVDKKVEPKSCDKTHTCPPCPAPELLGGPSVFLFPPKPKDTLMISRTPEVTCVVVDVSHEDPEVKFNWYVDGVEVHNAKTKPREEQYNSTYRVVSVLTVLHQDWLNGKEYKCKVSNKALPAPIEKTISKAKGQPREPQVCTLPPSRDELTENQVSLTCLVKGFYPSDIAVEWESNGQPENNYKTTPPVLDSDGSFFLYSWLTVDKSRWQQGNVFSCSVMHEALHNHYTQKSLSLSPG
light: DIQMTQSPSSVSASVGDRVTITCRASQGISSWLAWYQQKPGKAPKLLIYAASSLQSGVPSRFSGSGSGTDFTLTISSLQPEDFATYYCQQGVSFPRTFGGGTKVEIKRTVAAPSVFIFPPSDEQLKSGTASVVCLLNNFYPREAKVQWKVDNALQSGNSQESVTEQDSKDSTYSLSSTLTLSKADYEKHKVYACEVTHQGLSSPVTKSFNRGEC
notes: CLEC12A scFv-Fc, NKG2D A49MI Fab-Fc, human IgG1 Fc; also called AB0237
On to B3, for which the Kd in test [8] was 315 nM and 294 nM and 302 nM; in [9], 1100 nM.

Values taken from patent publication US20220119534A1 (DRAGONFLY THERAPEUTICS, published 2022).
